In PMC3659287 one finds Kd data, which are given here for one substance.

For the assay, the target named is wild-type pneumolysin (PLY) (Streptococcus pneumoniae) (UniProt Q04IN8). As to the kind of experiment: ELISA. In general terms: An ELISA detects its analyte on a solid surface through an enzyme-linked reagent.
Sequence of UniProt Q04IN8 (Q04IN8 whole entry): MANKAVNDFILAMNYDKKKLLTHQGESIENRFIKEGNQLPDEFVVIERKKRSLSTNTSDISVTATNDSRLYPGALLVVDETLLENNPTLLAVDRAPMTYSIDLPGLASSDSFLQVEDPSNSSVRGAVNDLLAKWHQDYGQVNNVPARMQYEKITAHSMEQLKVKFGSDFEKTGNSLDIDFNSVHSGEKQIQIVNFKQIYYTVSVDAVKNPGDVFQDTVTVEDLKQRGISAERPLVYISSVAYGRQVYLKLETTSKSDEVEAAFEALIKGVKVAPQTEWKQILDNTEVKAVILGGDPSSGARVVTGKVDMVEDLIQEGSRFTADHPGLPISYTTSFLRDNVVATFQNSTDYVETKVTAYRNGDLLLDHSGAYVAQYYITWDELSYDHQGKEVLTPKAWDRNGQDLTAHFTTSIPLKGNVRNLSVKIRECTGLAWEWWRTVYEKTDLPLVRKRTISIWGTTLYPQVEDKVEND

On to “G-actin (non-muscle actin isolated from human platelets) (from UniProt P60709 1-375) (natural protein)”, for which the Kd (as a rule, the equilibrium constant for the complex coming apart) was 170 to 190 nM.
